Data from US20110166063A1 (priority 2008, published 2011).
“And” between values parts separate entries of the source, which are not always exact repeats. Identical values can stand only once. Like-named read-outs stand apart in the source and are kept apart here. Marks after values point to notes of the source that are not given here. Ends that are not written are not given here.

Experiments:
[1] = target: human μ opioid receptor (Homo sapiens, UniProt P35372); assay: Radioligand competition binding assay, biphalin series, μ opioid receptor
human μ opioid receptor, sequence (P35372 whole entry): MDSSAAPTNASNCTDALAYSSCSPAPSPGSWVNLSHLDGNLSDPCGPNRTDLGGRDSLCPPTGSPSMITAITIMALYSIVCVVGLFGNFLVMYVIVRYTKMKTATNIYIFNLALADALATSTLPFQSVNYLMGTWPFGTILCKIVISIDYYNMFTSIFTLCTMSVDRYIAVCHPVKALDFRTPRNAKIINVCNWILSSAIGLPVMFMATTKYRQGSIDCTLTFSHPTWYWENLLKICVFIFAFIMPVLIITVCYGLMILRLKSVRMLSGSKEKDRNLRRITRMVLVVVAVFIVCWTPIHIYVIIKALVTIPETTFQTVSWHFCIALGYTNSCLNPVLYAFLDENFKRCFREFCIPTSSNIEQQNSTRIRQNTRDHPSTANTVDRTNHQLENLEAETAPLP
Description: (§1) Competition binding experiments were conducted by incubating membrane protein to equilibrium in triplicate in the presence of a fixed concentration of radioligand and increasing concentrations (0.1 nM to 10 μM) of test compound in 100 μL final volume. The radioligands used were specific for each receptor type, and the assay conditions are described in Table BIP6.3. Following incubations, the membranes were rapidly filtered through GF/B filter plate (presoaked with 0.5% polyethyleneimine), washed four times with cold 50 mM Tris-HCl, pH 7.5, and the bound radioactivity was then measured. Non-specific binding was measured in the presence of excess naloxone (100 μM); this value was subtracted from the total binding to yield the specific binding at each test concentration.
(§2) The test compounds were stored under acidic condition to stabilize the PEG conjugation.
(§3) Ki (affinity of test compound) was obtained using the Cheng Prusoff correction using experimental Kd (affinity of radioligand) values that were previously determined under these assay conditions.

[2] = assay type: physicochemical
[3] = OGF release rate and stability of OGF; assay type: physicochemical; conditions: 160 hours at 37° C., pH 7.5 and 16 hours at 37° C., pH 10.0
[4] = target: human δ opioid receptor (Homo sapiens, UniProt P41143); assay: Radioligand competition binding assay, biphalin series, δ opioid receptor
human δ opioid receptor, sequence (P41143 whole entry): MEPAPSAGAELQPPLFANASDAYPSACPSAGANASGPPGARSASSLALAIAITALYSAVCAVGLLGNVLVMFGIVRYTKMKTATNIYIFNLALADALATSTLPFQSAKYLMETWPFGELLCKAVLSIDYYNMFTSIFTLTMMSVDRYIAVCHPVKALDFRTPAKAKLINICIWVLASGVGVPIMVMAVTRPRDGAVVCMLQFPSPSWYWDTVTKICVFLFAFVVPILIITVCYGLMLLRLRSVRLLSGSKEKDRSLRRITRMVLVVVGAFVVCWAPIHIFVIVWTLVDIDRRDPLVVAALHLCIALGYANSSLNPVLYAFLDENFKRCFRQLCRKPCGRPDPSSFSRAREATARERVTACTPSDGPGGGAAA
Description: as §1, §2, §3

[5] = due to rapid proteolysis and glomerular filtration; cited from earlier work
[6] = tested on: rat red blood cells; assay: Hemolysis assay, protegrin-1 series; assay type: cell-based; conditions: for hemolytic effect: rat red blood cells, 37° C., relative to 0.25% Triton X-100
Description: Approximately 10 mL of blood was drawn from one adult rat into Na Heparin tube and kept in ice until use. Red blood cells were washed three times with 10 mL of cold DPBS ((−) CaCl2 and (−) MgCl2) and collected by sequential centrifugation at 3,000 g for 5 min at 4° C. Pellets of red blood cells were resuspended with DPBS ((−) CaCl2 and (−) MgCl2) and the total volume was brought up to initial volume of blood drawn. One mL of resuspended red blood cells was resuspended with 49 mL of DPBS ((−) CaCl2 and (−) MgCl2). Incubation mixture was prepared by 400 fold dilution of stock solution of test compounds with final volume of 800 μl. Final concentration of test compounds was equimolar to that of respective unconjugated compounds. Hemolysis incubation was done at 37° C. with mild agitation. For releasable conjugates, test compounds were preincubated in 1×PBS at 37° C. prior to hemolysis assay. Incubation mixture was centrifuged at 3,000 g for 5 min at 4° C., and the absorbance at 550 nm was read from supernatant.

[7] = Pharmacokinetic study of protegrin conjugates, single IV dose in rats; assay type: in vivo, Sprague-Dawley rats; conditions: […] equivalent protein mass IV
Description: The weight range of the animals was 313-346 grams. All animals were food fasted overnight.
Following the last collection point, the animals were euthanized. Bioanalytical analysis: analysis of the plasma samples was conducted using non-validated LC-MS/MS methods.

[8] = Pharmacokinetic study of V681 (V13AD) conjugates, single IV dose in rats; assay type: in vivo, Sprague-Dawley rats; conditions: 1.0 mg/kg equivalent protein mass IV
Text: The weight range of the animals was 311-346 grams. All animals were food fasted overnight. […] The predose sample was collected from the JVC.
Following the last collection point, the animals were euthanized.

[9] = tested on: rat red blood cells; assay: Hemolysis assay, V681(V13AD) series; assay type: cell-based; conditions: 37° C., relative to 0.25% Triton X-100
Description: Hemolysis assay. Approximately 10 mL of blood was drawn from one adult rat into Na Heparin tube and kept in ice until use. Red blood cells were washed three times with 10 mL of cold DPBS ((−) CaCl2 and (−) MgCl2) and collected by sequential centrifugation at 3,000 g for 5 min at 4° C. Pellets of red blood cells were resuspended with DPBS ((−) CaCl2 and (−) MgCl2) and the total volume was brought up to initial volume of blood drawn. One mL of resuspended red blood cells was resuspended with 49 mL of DPBS ((−) CaCl2 and (−) MgCl2). Incubation mixture was prepared by 400 fold dilution of stock solution of test compounds with final volume of 800 μl. Final concentration of test compounds was equimolar to that of respective unconjugated compounds. Hemolysis incubation was done at 37° C. with mild agitation.
For releasable conjugates, test compounds were preincubated in 1×PBS at 37° C. prior to hemolysis assay. Incubation mixture was centrifuged at 3,000 g for 5 min at 4° C., and the absorbance at 550 nm was read from supernatant.

[10] = target: T1, GPR54 G-Protein coupled receptor (Homo sapiens, UniProt Q969F8); assay: FLIPR calcium flux agonist assay on GPR54; assay type: cell-based; conditions: agonist activation at GPR54; no release incubation
T1 construct: host or cells: Chem-1 host cells
T1 sequence (Q969F8 whole entry): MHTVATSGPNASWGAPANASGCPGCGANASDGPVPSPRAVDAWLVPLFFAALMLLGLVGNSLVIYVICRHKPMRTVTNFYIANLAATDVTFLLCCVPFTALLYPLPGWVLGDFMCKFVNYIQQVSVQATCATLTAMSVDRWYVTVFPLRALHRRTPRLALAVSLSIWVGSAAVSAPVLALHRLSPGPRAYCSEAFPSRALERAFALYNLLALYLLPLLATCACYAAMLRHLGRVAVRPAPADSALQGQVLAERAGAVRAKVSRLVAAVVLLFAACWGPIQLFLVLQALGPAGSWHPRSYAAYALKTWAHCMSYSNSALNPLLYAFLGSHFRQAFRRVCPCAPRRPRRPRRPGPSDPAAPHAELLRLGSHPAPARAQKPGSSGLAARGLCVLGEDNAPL

[11] = pH 5
[12] = Pre-incubated in assay buffer pH 7.5 at 37° C. (72 h biphalin and di-CAC; 20 h di-C2 and di-SBC)
[13] = sample diluted on the day of the assay (unreleased)
[14] = test compound in plasma (non-releasable conjugates, native PG-1), Mean ± SD
[15] = protegrin-1 in plasma (released or native)

Compound: C[C@@H](NC(=O)[C@@H](N)Cc1ccc(O)cc1)C(=O)NCC(=O)N[C@@H](Cc1ccccc1)C(=O)NNC(=O)[C@H](Cc1ccccc1)NC(=O)CNC(=O)[C@@H](C)NC(=O)[C@@H](N)Cc1ccc(O)cc1 [Biphalin, reference compound]
- Ki [1, 12]: 3.1 nM
- Ki [1, 13]: 3.4 nM and 4.7 nM
- stability of the peptide following incubation ([2]; 72 hour incubation in assay buffer, pH 7.5 at 37° C.): remained stable

Compound: CSCC[C@H](NC(=O)[C@H](Cc1ccccc1)NC(=O)CNC(=O)CNC(=O)[C@@H](N)Cc1ccc(O)cc1)C(=O)O [OGF, Opioid Growth Factor]
- stability of the peptide following pre-incubation [3]: remained stable

Compound: (C2-20K)2-biphalin [Di-C2-PEG2-FMOC-NHS-20K-biphalin]
- Ki [1, 12]: 10.1 nM
- Ki [1, 13]: 21.7 nM

Compound: (CAC-20K)2-biphalin [Di-CAC-PEG2-FMOC-NHS-20K-biphalin]
- Ki [1, 12]: 13.7 nM
- Ki [1, 13]: 1120 nM

Compound: (SBC-30K)2-biphalin
- stability of the conjugate ([2]; purification from the reaction mixture, even at acidic pH values): instability

Compound: (SBC-30K)2-biphalin [Di-mPEG-SBC-30K-biphalin]
- Ki (nM), δ Opioid Receptor [4, 12]: not obtained

Compound: (SPA-2K)2-biphalin [Di-mPEG-SPA-2K-biphalin]
- inhibition of specific binding at the highest test concentration ([1]; 10 μM): no measurable inhibition
- inhibition of specific binding at the highest test concentration ([4]; 10 μM): no measurable inhibition

Compound: GHRH: growth hormone releasing hormone, stimulates growth hormone secretion from the anterior pituitary gland
- half-life [5]: 0.167 to 0.333 h

Compound: [Protegrin-1]-[PEG-di-ButyrAldehyde-5K]-[Protegrin-1] (RGGRLCYCRRRFCVCVGR-NH2; cysteine pairing not given here; also: two peptide copies linked by PEG-dibutyraldehyde 5K; UniProt P32194 131-148, looked up) [PG-1-PEG-5K-PG-1]
- hemolytic effect ([6]; listed as PG1-ButyrALD-5K-PG1): little hemolytic activity
- hemolytic effect ([6]; listed as PG1-ButyrALD-PG1): almost eliminated
- CL [7, 14]: 0.135 ± 0.00922 L/h/kg
- T1/2 [7, 14]: 6.8 ± 0.65 h
- Vss [7, 14]: 0.248 ± 0.0221 L/kg

Compound: [mono]-[mPEG2-20K]-[V681(V13AD)] [NHS-20K-V681 (V13AD)]
- AUCINF [8]: 53.0 ± 1.1 µg·h/mL
- CL [8]: 0.0189 ± 0.00039 L/h/kg
- Cmax [8]: 5.21 ± 0.211 µg/mL
- MRT [8]: 7.6 ± 1.1 h
- T1/2 [8]: 5.8 ± 1.0 h
- Vss [8]: 0.143 ± 0.0237 L/kg
- mean AUC as multiple of V681 (V13AD) [8]: 24 times
- hemolytic effects [9]: almost eliminated

Compound: [mono]-[mPEG-SMB-30K]-[V681(V13AD)] [SMB-30K-V681 (V13AD)]
- AUCINF [8]: 158 ± 43 µg·h/mL
- CL [8]: 0.0066 ± 0.0016 L/h/kg
- Cmax [8]: 4.38 ± 0.505 µg/mL
- MRT [8]: 38.3 ± 18.2 h
- T1/2 [8]: 26.6 ± 12.5 h
- Vss [8]: 0.235 ± 0.05 L/kg
- mean AUC as multiple of V681 (V13AD) [8]: 123 times
- hemolytic effects [9]: almost eliminated

Compound: dextran-butyraldehyde-40K-protegrin-1 (RGGRLCYCRRRFCVCVGR-NH2; cysteine pairing not given here; also: dextran-butyraldehyde 40K conjugate; UniProt P32194 131-148, looked up) [Dextran-PG1]
- hemolytic effect [6]: almost eliminated

Compound: mono-[mPEG2-ButyrAldehyde-40K]-[Kisspeptin-54] (GTSLSPPPESSGSPQQPGLSAPHSRQIPAPQGAVLVQREKDLPNYNWNSFGLRF-NH2; also: mPEG2-ButyrAldehyde 40K conjugate, site not given here; UniProt Q15726 68-121, looked up) [Ald40K-KP54]
- EC50 (nM) [10]: No activity

Compound: mono-[mPEG2-CAC-FMOC-40K]-[PG-1] (RGGRLCYCRRRFCVCVGR-NH2; cysteine pairing not given here; also: releasable CAC-PEG2-FMOC 40K PEG, mono-conjugate, site not given here; UniProt P32194 131-148, looked up) [CAC-PEG2-FMOC-40K-PG-1, PG1 conjugate with a releasable linker]
- hemolytic effects relative to that from PG1 ([6]; conjugate preincubated for 96 hr in 1XPBS at 37° C.): 60-70%
- T1/2 (hr) [7, 15]: 0.13* hr
- Tmax [7, 15]: 1.8 min

Compound: mono-mPEG-SBC-30K-ziconotide [SBC-ziconotide conjugate]
- stability of the conjugate [11]: very unstable
